Laboratory results from patent US20250304644A1, “PEPTIDES TRIPLE AGONISTS OF GIP, GLP-1 AND GLP-2” (BAINAN BIOTECH APS, priority 2021, published 2025).
Where no end group is shown, it is not given here. [ ]: non-standard residue; d: D form. The star is where a group is joined. Decanoyl = CCCCCCCCCC(=O)*; Aib = CC(C)(N)C(=O)O

T1: human GLP-2R (glucagon-like peptide-2 receptor) (human, UniProt O95838 1-553)
T1 sequence (looked up): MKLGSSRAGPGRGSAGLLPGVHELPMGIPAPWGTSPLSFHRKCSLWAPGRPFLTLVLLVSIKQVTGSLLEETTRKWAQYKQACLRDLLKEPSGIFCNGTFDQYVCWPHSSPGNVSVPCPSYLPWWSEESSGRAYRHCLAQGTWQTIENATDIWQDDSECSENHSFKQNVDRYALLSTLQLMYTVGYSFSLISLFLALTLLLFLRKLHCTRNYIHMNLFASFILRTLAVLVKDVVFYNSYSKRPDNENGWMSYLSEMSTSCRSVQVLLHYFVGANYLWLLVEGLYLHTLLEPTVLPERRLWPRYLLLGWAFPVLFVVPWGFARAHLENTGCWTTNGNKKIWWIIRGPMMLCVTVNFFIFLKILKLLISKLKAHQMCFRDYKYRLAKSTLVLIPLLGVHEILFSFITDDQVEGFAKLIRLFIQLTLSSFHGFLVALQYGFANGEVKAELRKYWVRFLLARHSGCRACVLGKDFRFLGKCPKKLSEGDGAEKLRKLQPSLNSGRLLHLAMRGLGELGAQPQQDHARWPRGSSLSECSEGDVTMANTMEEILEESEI

T2: human GIPR (glucose-dependent insulinotropic polypeptide receptor) (human, UniProt P48546 22-466)
T2 sequence (looked up): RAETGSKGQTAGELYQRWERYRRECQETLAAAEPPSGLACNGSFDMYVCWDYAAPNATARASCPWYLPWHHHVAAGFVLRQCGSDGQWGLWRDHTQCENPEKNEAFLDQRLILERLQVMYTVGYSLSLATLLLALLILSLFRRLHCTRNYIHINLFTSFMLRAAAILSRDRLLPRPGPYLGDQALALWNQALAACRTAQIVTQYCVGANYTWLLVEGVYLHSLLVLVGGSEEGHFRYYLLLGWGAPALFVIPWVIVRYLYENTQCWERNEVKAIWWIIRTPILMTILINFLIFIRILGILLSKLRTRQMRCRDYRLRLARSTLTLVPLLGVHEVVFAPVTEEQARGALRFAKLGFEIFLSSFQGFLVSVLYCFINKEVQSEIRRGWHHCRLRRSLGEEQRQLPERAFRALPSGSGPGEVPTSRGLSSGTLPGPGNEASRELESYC

B1: Compound 4 (peptide)
peptide: H[Aib]DGTFISDYSTILDLLAARDFINWLIQTKITK(Decanoyl)-NH2
modifications: N-terminus assumed
SMILES: CCCCCCCCCC(=O)NCCCC[C@H](NC(=O)[C@@H](NC(=O)[C@@H](NC(=O)[C@H](CCCCN)NC(=O)[C@@H](NC(=O)[C@H](CCC(N)=O)NC(=O)[C@@H](NC(=O)[C@H](CC(C)C)NC(=O)[C@H](Cc1c[nH]c2ccccc12)NC(=O)[C@H](CC(N)=O)NC(=O)[C@@H](NC(=O)[C@H](Cc1ccccc1)NC(=O)[C@H](CC(=O)O)NC(=O)[C@H](CCCNC(=N)N)NC(=O)[C@H](C)NC(=O)[C@H](C)NC(=O)[C@H](CC(C)C)NC(=O)[C@H](CC(C)C)NC(=O)[C@H](CC(=O)O)NC(=O)[C@H](CC(C)C)NC(=O)[C@@H](NC(=O)[C@@H](NC(=O)[C@H](CO)NC(=O)[C@H](Cc1ccc(O)cc1)NC(=O)[C@H](CC(=O)O)NC(=O)[C@H](CO)NC(=O)[C@@H](NC(=O)[C@H](Cc1ccccc1)NC(=O)[C@@H](NC(=O)CNC(=O)[C@H](CC(=O)O)NC(=O)C(C)(C)NC(=O)[C@@H](N)Cc1c[nH]cn1)[C@@H](C)O)[C@@H](C)CC)[C@@H](C)O)[C@@H](C)CC)[C@@H](C)CC)[C@@H](C)CC)[C@@H](C)O)[C@@H](C)CC)[C@@H](C)O)C(N)=O
B2: Compound 3 (peptide)
peptide: H[Aib]DGTFISDYATILDNLAARDFINWLIQTKITK(Decanoyl)-OH
modifications: N-terminus assumed
SMILES: CCCCCCCCCC(=O)NCCCC[C@H](NC(=O)[C@@H](NC(=O)[C@@H](NC(=O)[C@H](CCCCN)NC(=O)[C@@H](NC(=O)[C@H](CCC(N)=O)NC(=O)[C@@H](NC(=O)[C@H](CC(C)C)NC(=O)[C@H](Cc1c[nH]c2ccccc12)NC(=O)[C@H](CC(N)=O)NC(=O)[C@@H](NC(=O)[C@H](Cc1ccccc1)NC(=O)[C@H](CC(=O)O)NC(=O)[C@H](CCCNC(=N)N)NC(=O)[C@H](C)NC(=O)[C@H](C)NC(=O)[C@H](CC(C)C)NC(=O)[C@H](CC(N)=O)NC(=O)[C@H](CC(=O)O)NC(=O)[C@H](CC(C)C)NC(=O)[C@@H](NC(=O)[C@@H](NC(=O)[C@H](C)NC(=O)[C@H](Cc1ccc(O)cc1)NC(=O)[C@H](CC(=O)O)NC(=O)[C@H](CO)NC(=O)[C@@H](NC(=O)[C@H](Cc1ccccc1)NC(=O)[C@@H](NC(=O)CNC(=O)[C@H](CC(=O)O)NC(=O)C(C)(C)NC(=O)[C@@H](N)Cc1c[nH]cn1)[C@@H](C)O)[C@@H](C)CC)[C@@H](C)O)[C@@H](C)CC)[C@@H](C)CC)[C@@H](C)CC)[C@@H](C)O)[C@@H](C)CC)[C@@H](C)O)C(=O)O
B3: Compound 2 (peptide)
peptide: HXDGTFISDYSTILDNLAARDFINWLIQTKITK
modifications: Aib at position 2; K33 acylated with C10, K(C10); C-terminus -OH
B4: Compound 7 (peptide)
peptide: H-H[Aib]DGTFISDYSTILENLAARDFINWLIQTKITK(Decanoyl)-NH2
SMILES: CCCCCCCCCC(=O)NCCCC[C@H](NC(=O)[C@@H](NC(=O)[C@@H](NC(=O)[C@H](CCCCN)NC(=O)[C@@H](NC(=O)[C@H](CCC(N)=O)NC(=O)[C@@H](NC(=O)[C@H](CC(C)C)NC(=O)[C@H](Cc1c[nH]c2ccccc12)NC(=O)[C@H](CC(N)=O)NC(=O)[C@@H](NC(=O)[C@H](Cc1ccccc1)NC(=O)[C@H](CC(=O)O)NC(=O)[C@H](CCCNC(=N)N)NC(=O)[C@H](C)NC(=O)[C@H](C)NC(=O)[C@H](CC(C)C)NC(=O)[C@H](CC(N)=O)NC(=O)[C@H](CCC(=O)O)NC(=O)[C@H](CC(C)C)NC(=O)[C@@H](NC(=O)[C@@H](NC(=O)[C@H](CO)NC(=O)[C@H](Cc1ccc(O)cc1)NC(=O)[C@H](CC(=O)O)NC(=O)[C@H](CO)NC(=O)[C@@H](NC(=O)[C@H](Cc1ccccc1)NC(=O)[C@@H](NC(=O)CNC(=O)[C@H](CC(=O)O)NC(=O)C(C)(C)NC(=O)[C@@H](N)Cc1c[nH]cn1)[C@@H](C)O)[C@@H](C)CC)[C@@H](C)O)[C@@H](C)CC)[C@@H](C)CC)[C@@H](C)CC)[C@@H](C)O)[C@@H](C)CC)[C@@H](C)O)C(N)=O
B5: Compound 15 (peptide)
peptide: H[Aib]DGTFISDYSTILDNIAARDFINWLIQTKITK(Decanoyl)-NH2
modifications: N-terminus assumed
SMILES: CCCCCCCCCC(=O)NCCCC[C@H](NC(=O)[C@@H](NC(=O)[C@@H](NC(=O)[C@H](CCCCN)NC(=O)[C@@H](NC(=O)[C@H](CCC(N)=O)NC(=O)[C@@H](NC(=O)[C@H](CC(C)C)NC(=O)[C@H](Cc1c[nH]c2ccccc12)NC(=O)[C@H](CC(N)=O)NC(=O)[C@@H](NC(=O)[C@H](Cc1ccccc1)NC(=O)[C@H](CC(=O)O)NC(=O)[C@H](CCCNC(=N)N)NC(=O)[C@H](C)NC(=O)[C@H](C)NC(=O)[C@@H](NC(=O)[C@H](CC(N)=O)NC(=O)[C@H](CC(=O)O)NC(=O)[C@H](CC(C)C)NC(=O)[C@@H](NC(=O)[C@@H](NC(=O)[C@H](CO)NC(=O)[C@H](Cc1ccc(O)cc1)NC(=O)[C@H](CC(=O)O)NC(=O)[C@H](CO)NC(=O)[C@@H](NC(=O)[C@H](Cc1ccccc1)NC(=O)[C@@H](NC(=O)CNC(=O)[C@H](CC(=O)O)NC(=O)C(C)(C)NC(=O)[C@@H](N)Cc1c[nH]cn1)[C@@H](C)O)[C@@H](C)CC)[C@@H](C)O)[C@@H](C)CC)[C@@H](C)CC)[C@@H](C)CC)[C@@H](C)CC)[C@@H](C)O)[C@@H](C)CC)[C@@H](C)O)C(N)=O
B6: Compound 8 (peptide)
peptide: H-H[Aib]DGTFISDYSTILDNLAAREFINWLIQTKITK(Decanoyl)-NH2
SMILES: CCCCCCCCCC(=O)NCCCC[C@H](NC(=O)[C@@H](NC(=O)[C@@H](NC(=O)[C@H](CCCCN)NC(=O)[C@@H](NC(=O)[C@H](CCC(N)=O)NC(=O)[C@@H](NC(=O)[C@H](CC(C)C)NC(=O)[C@H](Cc1c[nH]c2ccccc12)NC(=O)[C@H](CC(N)=O)NC(=O)[C@@H](NC(=O)[C@H](Cc1ccccc1)NC(=O)[C@H](CCC(=O)O)NC(=O)[C@H](CCCNC(=N)N)NC(=O)[C@H](C)NC(=O)[C@H](C)NC(=O)[C@H](CC(C)C)NC(=O)[C@H](CC(N)=O)NC(=O)[C@H](CC(=O)O)NC(=O)[C@H](CC(C)C)NC(=O)[C@@H](NC(=O)[C@@H](NC(=O)[C@H](CO)NC(=O)[C@H](Cc1ccc(O)cc1)NC(=O)[C@H](CC(=O)O)NC(=O)[C@H](CO)NC(=O)[C@@H](NC(=O)[C@H](Cc1ccccc1)NC(=O)[C@@H](NC(=O)CNC(=O)[C@H](CC(=O)O)NC(=O)C(C)(C)NC(=O)[C@@H](N)Cc1c[nH]cn1)[C@@H](C)O)[C@@H](C)CC)[C@@H](C)O)[C@@H](C)CC)[C@@H](C)CC)[C@@H](C)CC)[C@@H](C)O)[C@@H](C)CC)[C@@H](C)O)C(N)=O

target: T1, human GLP-2R (glucagon-like peptide-2 …); assay: cell-based or functional assay

Row | EC50 (nM) GLP-2R | Efficacy GLP-2R | logEC50 GLP-2R | Binder
1 | 28.2 nM | 92 | 7.6 | B1
2 | 2.8 nM | 101 | 8.6 | B2
3 | – | 105 | – | B3
4 | 12.6 nM | 97 | 7.9 | B4

target: T2, human GIPR (glucose-dependent …); assay: cell-based or functional assay

Row | EC50 (nM) GIPR | Efficacy GIPR | pEC50 GIPR | Binder
5 | 1.12 nM | 102 | 9 | B1
6 | 0.794 nM | 98 | 9.1 | B5
7 | – | 80 | 9.2 | B2
8 | 1.12 nM | 99 | 9 | B6
9 | – | 99 | – | B3
10 | 0.794 nM | 96 | 9.1 | B4

target: human GLP-1R (glucagon-like peptide-1 receptor) (human, UniProt P43220 24-463); assay: cell-based or functional assay

Row | EC50 (nM) GLP-1R | Efficacy GLP-1R | logEC50 GLP-1R | Binder
11 | 25.1 nM | 82 | 7.6 | B1
12 | 4.73 nM | 90 | 8.3 | B5
13 | 1.78 nM | 94 | 8.8 | B2
14 | 2.24 nM | 98 | 8.7 | B6
15 | – | 84 | – | B3
